According to patent CN117430709A (KANGWEI ZHONGHE ZHONGSHAN BIOLOGICAL PHARMACEUTICAL CO LTD; …, dated 2024):

T1: BCMA on multiple myeloma cell lines RPMI8226 (low BCMA) and U266 (high BCMA) (human, UniProt Q02223 1-184)
T1 construct: whole, on cells; endogenous expression; also called CD269; TNFRSF17
T1 sequence (looked up): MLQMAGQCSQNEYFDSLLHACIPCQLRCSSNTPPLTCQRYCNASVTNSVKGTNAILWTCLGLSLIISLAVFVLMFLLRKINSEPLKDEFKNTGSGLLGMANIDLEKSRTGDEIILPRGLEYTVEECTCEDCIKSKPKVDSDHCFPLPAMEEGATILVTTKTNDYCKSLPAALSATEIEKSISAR


Target: T1, BCMA on multiple myeloma cell lines …
Assay: flow cytometry on RPMI8226 cells (low BCMA), anti-his-FITC

Row | Binder | binding result
1 | NbBCMA-5 (VHH, Expressed in E. coli from PET30a(+); the supernatant of sonicated bacteria was used in flow cytometry; not shown: His tag from the PET30a(+) vector (detected with anti-his-FITC)) VHH: QVQLVETGGGLVQAGGSLRLSCAASGTIFSVYNMGWFRQAPGKQRELVAAITKNGSTSYKDSVKGRFTISTDNAKNTVDLRMSSLKLGDTAVYFCAAWDWDKNQAYWGQGTQVTVSS | binds
2 | NbBCMA-8 (VHH, Expressed in E. coli from PET30a(+); the supernatant of sonicated bacteria was used in flow cytometry; not shown: His tag from the PET30a(+) vector (detected with anti-his-FITC)) VHH: QVQLVESGGGLVQAGGSLRLSCAASTRTFSSYVMAWFRQVPGKEREFVASRACSGGTPYYADSVKGRFFISRDDAKNTVYLRMNSLKPEDTAVYYCAAASIGATQYDYWGQGTQVIVSS | binds
